Data reported in publication PMC12691273.

B1: chicken forkhead box O1 (FOXO1) wild-type [chicken] / Ran protein [chicken (endogenous in granulosa cells)] (parent)
chain 1: MAEAPQLVDIDPDFEPLPRPRSCTWPLPRPEFNPPSSATSSPAPSCGGQPDGAAAAGAAVAVAASGALSADFISNLCLVEESEDFALPPAAAAPPESAACRCGDFSAPEAGCRLHPPGPPPVPPVPPAVAALSPGPVAGQPRKSSSSRRNAWGNLSYADLITKAIESSPEKRLTLSQIYEWMVKSVPYFKDKGDSNSSAGWKNSIRHNLSLHSKFIRVQNEGTGKSSWWMLNPEGGKSGKSPRRRAASMDNNSKFAKSRGRAAKKKASLQSGQEGNGDSPGSQFSKWPASPSSHSNDDFDNWSTFRPRTSSNASTISGRLSPILPEQDDLGDGDVHSMVYPSSATKMTSTLPSLSEMSSSENMENLLDNLNLLSPNTSMTVSTQSSSAALMQQTPGYSFASSTTSICSPNPDYRKFTYAQASMNSLPQIPMQTLQDSKSSYGSMSQFNCPAGLLKELLTSDSPPHNDILASVDTGVSQAGGRALGQGVLMVTNSVMPTYGNQPPHNKMMNPNARPHQGHNQPTPAVNGRALSHTVNPMSHTSCLNRLSTVKTSLQVPMSHQMQMNAMNPYAPVNSCNGYGRVGIVSLHQEKLPSDLDDMLIERLDCDMESIIRNDLMDGETLDFNFDSVLPNQSFQHSVKTTTHSWVSG
chain 2: not shown

Variants of: B1
Assay: co-immunoprecipitation (IP FOXO1, WB Ran), band quantification
Details: with Ran protein [chicken (endogenous in granulosa cells)]
[1] = with 740-Y-P, n = 3, read off a plot
[2] = with Ly294002, n = 3, read off a plot

Variant	response [1]	response [2]
chain 1 S248A	1.2	0.28
chain 1 S311A	1.3	0.33
